Test results from patent US20230181723A1 (UNIVERSITY OF MARYLAND COLLEGE PARK, published 2023).

What was measured:
[1] = target: T1, FLAG-tagged human FcRn heavy chain (pcDNA-FLAGFcRn), expressed in HeLa^FcRn cells (human, UniProt P55899 24-365); assay: probing for interactions in HeLa^FcRn cells transfected with HA-tagged HCMV cDNAs
T1 construct: whole, on cells; it pairs with endogenous β2m in the cells; also called FcRn HC; WT FcRn

[2] = target: T2, HA-tagged HCMV US11 (pEF6-US11, gene synthesised from HCMV AD169 DNA), expressed in HeLa cells (human cytomegalovirus (AD169 DNA as …, UniProt P09727 18-215)); assay: immunoprecipitation of US11 from HeLa^US11 cells, blot for Derlin-1
T2 construct: Full-length membrane glycoprotein expressed in transfected HeLa cells and tested in CHAPS lysates; also called HCMV glycoprotein US11; wild-type US11

[3] = target: T2, HA-tagged HCMV US11 (pEF6-US11, gene …); assay: reciprocal co-immunoprecipitation (anti-HA, anti-FLAG) from HeLa^HFE+US11 lysates
[4] = target: T1, FLAG-tagged human FcRn heavy chain …; assay: reciprocal co-immunoprecipitation (anti-HA for US2, anti-FLAG for FcRn) from HeLa^FcRn+US2 lysates
[5] = target: T3, human TMEM129 (E3 ligase), endogenous in HeLa cells (human, UniProt A0AVI4 1-362); assay: immunoprecipitation with anti-TMEM129 from HeLa^FcRn cells transfected with Derlin-1
T3 construct: whole, on cells; Endogenous protein in HeLa lysates; also called E3 ligase TMEM129
T3 sequence (looked up): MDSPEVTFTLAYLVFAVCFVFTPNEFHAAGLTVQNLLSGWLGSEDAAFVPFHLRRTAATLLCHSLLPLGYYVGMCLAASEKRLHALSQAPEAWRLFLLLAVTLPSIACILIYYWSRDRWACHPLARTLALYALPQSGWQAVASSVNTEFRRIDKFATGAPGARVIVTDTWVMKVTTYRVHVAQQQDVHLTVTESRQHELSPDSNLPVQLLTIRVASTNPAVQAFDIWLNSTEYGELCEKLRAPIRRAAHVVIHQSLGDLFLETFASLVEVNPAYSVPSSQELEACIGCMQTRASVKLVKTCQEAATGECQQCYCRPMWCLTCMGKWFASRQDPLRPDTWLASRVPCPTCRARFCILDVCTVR

T1 sequence (P55899 other isoform, or with tags, fused parts or gaps): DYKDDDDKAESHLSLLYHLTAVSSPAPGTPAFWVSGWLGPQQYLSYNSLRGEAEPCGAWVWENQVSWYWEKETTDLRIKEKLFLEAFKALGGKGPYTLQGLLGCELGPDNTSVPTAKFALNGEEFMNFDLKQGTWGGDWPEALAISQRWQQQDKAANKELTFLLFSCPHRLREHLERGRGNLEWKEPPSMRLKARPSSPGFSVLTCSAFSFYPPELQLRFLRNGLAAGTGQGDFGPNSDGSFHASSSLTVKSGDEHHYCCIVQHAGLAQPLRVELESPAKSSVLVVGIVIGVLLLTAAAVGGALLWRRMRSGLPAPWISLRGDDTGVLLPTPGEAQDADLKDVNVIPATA

B1: HA-tagged HCMV UL16, expressed in HeLa^FcRn cells (other)
chain: VDLGSKSSNSTCRLNVTELASIHPGETWTLHGMCISICYYENVTEDEIIGVAFTWQHNESVVDLWLYQNDTVIRNFSDITTNILQDGLKMRTVPVTKLYTSRMVTNLTVGRYDCLRCENGTTKIIERLYVRLGSLYPRPPGSGLAKHPSVSADEELSATLARDIVLVSAITLFFFLLALRIPQRLCQRLRIRLPHRYQRLRTED
notes: whole, on cells
[1]
  binding result: binds

B2: Derlin-1 in HeLa^US11 or HeLa^US11Q192L stable cells (FIG. 16A; no transfection of Derlin-1 stated) (other)
chain: SDIGDWFRSIPAITRYWFAATVAVPLVGKLGLISPAYLFLWPEAFLYRFQIWRPITATFYFPVGPGTGFLYLVNLYFLYQYSTRLETGAFDGRPADYLFMLLFNWICIVITGLAMDMQLLMIPLIMSVLYVWAQLNRDMIVSFWFGTRFKACYLPWVILGFNYIIGGSVINELIGNLVGHLYFFLMFRYPMDLGGRNFLSTPQFLYRWLPSRRGGVSGFGVPPASMRRAADQNGGGGRHNWGQGFRLGDQ
notes: whole, on cells
[2]
  binding result: binds

B3: FLAG-tagged human HFE (hemochromatosis protein), expressed in HeLa^HFE cells (other)
chain: DYKDDDDKRLLRSHSLHYLFMGASEQDLGLSLFEALGYVDDQLFVFYDHESRRVEPRTPWVSSRISSQMWLQLSQSLKGWDHMFTVDFWTIMENHNHSKESHTLQVILGCEMQEDNSTEGYWKYGYDGQDHLEFCPDTLDWRAAEPRAWPTKLEWERHKIRARQNRAYLERDCPAQLQQLLELGRGVLDQQVPPLVKVTHHVTSSVTTLRCRALNYYPQNITMKWLKDKQPMDAKEFEPKDVLPNGDGTYQGWITLAVPPGEEQRYTCQVEHPGLDQPLIVIWEPSPSGTLVIGVISGIAVFVVILFIGILFIILRKRQGSRGAMGHYVLAERE
notes: whole, on cells; Specificity control with an MHC class I-like structure; also called HEF; HeLa^HFE+US11
[3]
  binding result: no binding

B4: HA-tagged HCMV US2 (pEF6-US2), expressed in HeLa cells (other)
chain: MNNLWKAWVGLWTSMGPLIRLPDGITKAGEDALRPWKSTAKHPWFQIEDNRCYIDNGKLFARGSIVGNMSRFVFDPKADYGGVGENLYVHADDVEFVPGESLKWNVRNLDVMPIFETLALRLVLQGDVIWLRCVPELRVDYTSSAYMWNMQYGMVRKSYTHVAWTIVFYSINITLLVLFIVYVTVDCNLSMMWMRFFVCYPYDVPDYA
notes: whole, on cells; also called HeLa^US2; HeLa^FcRn+US2
[4]
  binding result: no binding

B5: Myc-tagged human Derlin-1 (pSectag2-Derlin-1) (other)
chain: SDIGDWFRSIPAITRYWFAATVAVPLVGKLGLISPAYLFLWPEAFLYRFQIWRPITATFYFPVGPGTGFLYLVNLYFLYQYSTRLETGAFDGRPADYLFMLLFNWICIVITGLAMDMQLLMIPLIMSVLYVWAQLNRDMIVSFWFGTRFKACYLPWVILGFNYIIGGSVINELIGNLVGHLYFFLMFRYPMDLGGRNFLSTPQFLYRWLPSRRGGVSGFGVPPASMRRAADQNGGGGRHNWGQGFRLGDQEQKLISEEDL
notes: whole, on cells; Transiently expressed in HeLa transfectants; tested in lysates; also called myc-tagged Derlin-1; Derlin-1 (WT)
[5]
  binding result: binds

B6: HA-tagged HCMV US6, expressed in HeLa^FcRn cells (other)
chain: ERSSRDPKTLLSLSPRQQACVPRTKSHRPVCYNDTGDCTDADDSWKQLGEDFAHQCLQAAKKRPKTHKSRPNDRNLEGRLTCQRVRRLLPCDLDIHPSHRLLTLMNNCVCDGAVWNAFRLIERHGFFAVTLYLCCGITLLVVILALLCSITYESTGRGIRRCGS
notes: whole, on cells
[1]
  binding result: binds
